This data set can be described thus: soluble on expression in E. coli; label from the status in PepcDB or PDB records.
Take “NGHYMDQFTYAERATDWRGNNNIANSIFSQMQLEDHPIPSWVVMSPGTGGTSATIGRFIRYQKYDTKLCVVDPENSVFYDAFQSGNNELKGNTGSKIEGIGRPRVEPSFIAGVVDEMRKIPDAASIATAHWVSQLIGRKVGASTGTNLYGVLQLACEMKQRGETGSIVTLLCDSGERYLDTYYDLAWVKENIGDIQPYLTQLEVIQAKGCVEPACCGPITA”: the “soluble on expression in E. coli” value is reported as “not soluble”.

As to “MAEEQARHVKNGLECIRALKAEPIGSLAIEEAMAAWSEISDNPGQERATCREEKAGSSGLSKPCLSAIGSTEGGAPRIRGQGPGESDDDAETLGIPPRNLQASSTGLQCYYVYDHSGEAVKGIQDADSIMVQSGLDGDSTLSGGDNESENSDVDIGEPDTEGYAITDRGSAPISMGFRASDVETAEGGEIHELLRLQSRGNNFPKLGKTLNVPPPPDPGRASTSGTPIKKGHRREISLIWNGDRVFIDRWCNPMCSKVTLGTIRARCTCGECPRVCEQCRTDTGVDTRIWYHNLPEIPE”, the “soluble on expression in E. coli” value is on record as “not soluble”.

“MHGIDLHTHSNISDGTLSPSCLVDAAIACGIHTLALTDHDTMDGLETAIQQAQGHDIQIISGAEISSQWSRPNTKKAYGVHIVALNMQNPEPLLDALVIQKNIRAERAQQICQILQQCTGQDIYTDVLLKVEGEPDRITRTHIAKALVEKEIVARPQQAFDRFLKEGKRAYVKFDGLNLADTIRIIHESEGFAILAHPTRYDLSSTNVRYLIELFAKMGGDAVELPPSVDPVSTRQMIDRIIQQFDLKVSIGSDFHGENMPWIKLGHTPQPNPHQTGIWESFR”: the “soluble on expression in E. coli” value is listed as “not soluble”.

On to “MELKNSISDYTETEFKKIIEDIINCEGDEKKQDDNLEHFISVTEHPSGSDLIYYPEGNNDGSPEAVIKEIKEWRAANGKSGFKQG”, for which the “soluble on expression in E. coli” value is “soluble”.

On to “MRGVTPINPQKKIEADSNPVKESDYYEGERLTHLLDLIQRGIETSKLSNVNSLPEKIWLKKQIAIGINEVTRVLERMNPNNTSDQQQNPKQLQVVILVADCKPRMLTKHIPNLAASRNVPVLYVRDNKRASLRLGELVKLKTALAIGIKARGNDLNLLLKQILPRDS”, for which the “soluble on expression in E. coli” value is recorded as “soluble”.

Take “MGRQGSLALLLSIILIGETIANEYDGLSSHQSHQSTVTSAPIHVSEQQTSRNRPYNQPQLQQKPSVLTQSYQVLPESRNYYQYPQYLPTHTGYSNIQTVGQPYQMYGSAPGSNVVSGGNSESYGYNQQAPVPTVAPAPVHFSERQRSYSAAPTPPSPFSETRERENNNVRAPGHHAPAQQGHRSPSPPPSPFMINPKPVLSYGAANPFLANLPPAQGVYGAPIDSSHRGYDGFSLSAPAPPSGSSASVDDTWEALEASLDANTRRRHRIF”: the “soluble on expression in E. coli” value is recorded as “not soluble”.

As to “MEAEIFPGTIHLIDKPQAIPEAIRLLSASRTIGFDTETRPSFVRGARPSVALMQMSTETDCFLFRLNMIDIPEELQQLLENPGILKVGLSLSDDMTVIRRRKPIEPAGFVELQRLCPAYGIRDASLQKIYAILFGRRISKSQRLTNWEARTLTAAQQSYAALDAWACLRIFNQLMTLPTPTPVQFALL”, the “soluble on expression in E. coli” value is listed as “not soluble”.

In the case of “MAHHHHHHMSSTSTTHPQLLLQQSKVKYLMKVCRPLCQFTQKCNRGSWVERTFGAERKKASSASEDNDLLSMHLPFSSDTAPPCGYSTTEAVRLISLPYHPHVYAYCLFESRLIFERAVLHGAIAPNVKPSQFFVHPISVMRHPEKFKLFFGEERSDVLLRLLVDLLGEYDGDDRSVVQKCRAKGVSNENWVPFLRGLGLCLAMGDIASSQATFVMEDCITGGGADCGLSLPGSYEKRGSVAAELLMEASVELGSLTLANLSLSLYRQFLPEVPLTASKKVTICTTRCERRFLEWNQRCLKTGPRR”, the “soluble on expression in E. coli” value is reported as “not soluble”.

For the sequence “MIKTRDQSIFDEMFKRIQSLGFKVYDYKPMTEVPYPFVEMESTDAEYIPNKDDIKGSVELMLSVWGVQKKRKQVSDMASAIFSQALTVESSDVFRWSLNTRQSSIQMLDDTTTVTPLKRAIVTLRFNLR”, the “soluble on expression in E. coli” value was “not soluble”.

On to “MTSSATSPTNGVDKNKNEEMVATPANCPYQLFNQEVVWNGKWIQTRQVGFKTHTGQVGVWQSVHRNTKPVEASADGVSIIARVRKQGKLYIVLVKQYRIPCGKLCLELPAGLIDAGETAQQAAIRELKEETGYVSGKVVMESKLCFLDPGLTDDSQCLVVVDVDGDAPENQNPVQVLDSTESIEVLLVEQSALMAYVTNLDSSSIVVESTLLAYAMGIQFATI”, for which the “soluble on expression in E. coli” value is given as “not soluble”.

The values are drawn from the DeepSol protein solubility set.
